# Measurements from patent US8956838B2, “Carboxyl esterase polypeptides” (B.R.A.I.N., priority 2006, dated 2015).
# B1: EstCL1: recombinant enzyme having carboxyl esterase activity, amino acid sequence SEQ ID NO: 6, family IV of bacterial lipolytic enzymes (protein)
# chain: MTDPYVRPDVAMFLAFLNNAPGPKLHELSAPEARMVQNAMRDMADAPVGELAVMRDLEIPGPAGTIMARLYDKQPGRGSGPAMVFFHGGGFVIGNIHTYEPFCAEVARLLDLPVISVEYRLGPESPFPAAFEDCEAAARWVASKPEALGFDVSGLILSGDSAGGNLTISTSMALRDVAAGVPVIAQMPIYPVVTLDPDWPSMRDFADGYLLTAELIQWFGDGHGASGEDYRTHPLDFDQSGMPPTVITTASLDPLRDQGMAYFEKLKAAGVRAEHISAEGNIHGHINVRKGIPSSQQDVEGYVTALTAMLAGVMAEA
# modifications: metagenomic sequence
# B2: EstCL2: recombinant enzyme having carboxyl esterase activity, amino acid sequence SEQ ID NO: 8, family V of bacterial lipolytic enzymes (protein)
# chain: MKRKTIFSRLSFAALGLFAVATIALDAKAATTCPAGAICRYEEAPGSYSGNGPYTVRSYTLSRLQTPGGATVYYPSNARPPFSGVVFTPPYTGIQSMFAAWGPFFASHGIVMVTMDTNTTLDTVDQRASQQKQVLDALKRENTRSASALYGKLNTARLGAVGWSMGGGATWINSAEYAGLKSAMSLAGHNLTTVDIDSRGGNTRIPTLILNGALDLTYLGGLGQSDGVYNNIRSGVPKVFYEVSSAGHFAWGSPTSANRAVAGIALAFHKTFLDGDTRWVSYIKRPSSDVSKWATASLPQ
# modifications: metagenomic sequence
# Assays:
# Assay type in all cases: biochemical
# [1] = Enzyme activity with pNP-acylesters of different chain length; details: substrate pNP-caproate (C6); 4 mM, 45° C., pH 7.2
# Protocol: Enzyme activity tests were performed by incubating the enzyme with 4 mM substrate at 45° C. in 100 mM Tris-HCl buffer at pH 7.2, unless otherwise indicated. The reaction was measured at 410 nm. One unit is defined as the amount of enzyme catalyzing the appearance of 1 μmol of free p-nitrophenol/min. Enzyme activity against pNP-acylesters (butyrate, valerate, caproate, octanoate, decanoate and palmitate) was tested under the above conditions. […] The enzyme according to SEQ ID NO: 6 converted pNP-caproate with a specific activity of 80.0 U/mg.
# [2] = Titration assay with triglycerides; details: 10 mM, 37° C., pH 7.0
# Protocol: (§1) Enzyme activities on the substrates triacetin, tripropionin, tributyrin, tricaprylene, trilaurin and vinyl-substrates (vinyl-acetate, ˜propionate, ˜butyrate, ˜caproate, ˜caprylate and ˜laurate) were determined using a standard titration assay with minor modifications. Tests were performed with a Methrom 718 STAT potentiometric titrator (Herisau, Switzerland) and by using 10 mM NaOH for titration. The substrates at 10 mM concentration were emulsified in 20 ml reaction buffer containing 2 mM Tris/HCl pH 7.0. After addition of 7.5 μg of the purified enzyme the NaOH consumption was recorded at a reaction temperature of 37° C. One unit was defined as the amount of enzyme that released […] of fatty acid per min.
# [3] = Titration assay with vinyl acid esters; details: 10 mM, 37° C., pH 7.0
# Protocol: as §1
# [4] = Enantioselectivity, GC analysis of hydrolysis of acetic acid esters
# Protocol: To assay the activity of the enzymes on a range of acetic acid esters gas chromatography was used. The samples were analyzed for the production of chiral alcohols by the gas chromatograph GC-17A (Shimadzu, Duisburg, Germany) equipped with FID detector and CP-Chirasil-DEX CB (Chrompack (Middelburg, Netherlands), 25 m×0.25 mm ID) at a helium flow of 1.3 ml/min. The temperature programme included: 5 min at 60° C., followed by an increase of 5° C. per min until 190° C. was reached. For the GC analysis, activity-tests were run in 1 M Tris buffered solutions and using 10 mM substrates dissolved in DMSO as 0.1 M stock solutions. 2 μg of the enzyme were added and tests incubated over night before the corresponding alcohols could be extracted by treatment with acetic acid ethyl ester and analyzed by GC.
# [5] = substrate Acetic acid ester of tetrahydronaphthylamin
# [6] = substrate acetic acid ester of (+/−)-1-octin-3-ol, 10 mM, over night
# [7] = substrate acetic acid ester of phenylethylamin
# [8] = substrate cis-3,5-diacetoxy-1-cyclopenten
# [9] = substrate cis-3,5-diacetoxy-1-cyclopenten, conversion for the preferred enantiomer
# [10] = substrate isopropylidenglycerolacetate (rac.), values marked ^1: substrate conversion after 12 h
molecule,measurement,setting,value
B1,specific activity,[1],80.0 U/mg
same,specific activity,[2]; substrate triacetin (C2),120 U/mg
same,specific activity,[2]; substrate tributyrin (C4),330 U/mg
same,specific activity,[2]; substrate tricaprylin (C8),0 U/mg
same,specific activity,[2]; substrate trilaurin (C12),0 U/mg
same,specific activity,[2]; substrate tripropionin (C3),200 U/mg
same,specific activity,[3]; substrate vinyl acetate (C2),0 U/mg
same,specific activity,[3]; substrate vinyl butyrate (C4),550 U/mg
same,specific activity,[3]; substrate vinyl caprylate (C8),80 U/mg
same,specific activity,[3]; substrate vinyl laurinate (C12),0 U/mg
same,specific activity,[3]; substrate vinyl propionate (C3),173 U/mg
same,conversion % of 1.e,[4]; [5],0%
same,conversion % of 2.e,[4]; [5],0%
same,conversion % of 1.e,[4]; [6],0%
same,conversion % of 2.e,[4]; [6],0%
same,conversion % of 1.e,[4]; [7],0%
same,conversion % of 2.e,[4]; [7],0%
same,conversion % of 2.e,[4]; [8],0%
same,ee %,[4]; [8],100%
same,conversion % of 1.e,[4]; [9],100%
same,ee %,[4]; substrate isopropylidenglycerolacetate (rac.),100%
same,conversion % of 1.e,[4]; [10],0%
same,conversion % of 2.e,[4]; [10],35%
same,conversion % of 1.e,"[4]; substrate menthylacetate, 1. enantiomer (+)",0%
same,conversion % of 2.e,"[4]; substrate menthylacetate, 2.e. (−)",0%
B2,conversion % of 2.e,[4]; [8],0%
same,conversion % of 1.e,[4]; [9],100%
same,ee %,"[4]; substrate cis-3,5-diacetoxy-1-cyclopenten, listed as EstCl2",76.3%
same,ee %,"[4]; substrate cis-3,5-diacetoxy-1-cyclopenten, listed as SEQ ID NO: 8",76%
